{"source": "paper doi:10.1101/2023.05.10.540161", "about": "(bioRxiv, 2023)", "proteins": {"B1": {"name": "His6-CENP-E_(2452-2598) (domain or fragment, human, UniProt Q02224-1 2452-2598, looked up)", "chain": "PYKEEIEDLKMKLVKIDLEKMKNAKEFEKEISATKATVEYQKEVIRLLRENLRRSQQAQDTSVISEHTDPQPSNKPLTCGGGSGIVQNTKALILKSEHIRLEKEISKLKQQNEQLIKQKNELLSNNQHLSNEVKTWKERTLKREAHK", "notes": "CENP-E (kinesin-7), human, residues 2452-2598, from CENP-E transcript variant 1 (NM_001813.2); in the crystal only K2454 to S2506 were seen (likely C-terminal degradation during crystallization); Cloned into pET3aTr; also called minimal corona targeting domain; corona-targeting domain of CENP-E; source: E. coli BL21, purified as previously described (Legal et al., 2020)"}}, "biological_target": "the molecule itself", "assay": "crystal structure; His6-CENP-E 2452-2598 at 11 mg/ml, crystallized in 0.2 M potassium citrate tribasic monohydrate, 20% w/v PEG 3350 pH 8.3, room temperature; a CENP-E dimer in the asymmetric unit", "data": [{"protein": "B1", "values": [{"measurement": "stoichiometry N", "value": 2}]}]}
